Reference: patent publication US20240254204A1
Read-outs that look alike come from different tables or passages of the source.

Tests used:
[1] = molecular target: SARS-CoV-1
[2] = molecular target: SARS-CoV-2 RBD (SARS-CoV-2); assay: sVNT, cPass kit with SARS-CoV-2 RBD-HRP; note: test concentration or dose not given here
[3] = molecular target: SARS-CoV-1 RBD (SARS-CoV); assay: ELISA, 100 ng coated RBD, anti-human IgG-HRP; note: unit not given here
[4] = molecular target: SARS-CoV-2 RBD (SARS-CoV-2); assay: ELISA, 100 ng coated RBD, anti-human IgG-HRP; note: unit not given here
[5] = molecular target: SARS-CoV-1 RBD (SARS-CoV); assay: sVNT, cPass kit format with SARS-CoV-1 RBD-HRP; note: test concentration or dose not given here
[6] = molecular target: SARS-CoV-2 Lambda (SARS-CoV-2 Lambda)
[7] = molecular target: Bat CoV BANAL-52
[8] = molecular target: SARS-CoV-2 Mu
[9] = molecular target: SARS-CoV-2 Lambda (SARS-CoV-2 Lambda); remark: listed apart in the source
[10] = molecular target: SARS-CoV-1; remark: listed apart in the source
[11] = molecular target: SARS-CoV-2 Gamma
[12] = molecular target: Bat CoV RsSHC014 (SC1r-CoV RsSHC014)
[13] = molecular target: Pangolin CoV GD-1
[14] = molecular target: Bat CoV WIV-1 (SC1r-CoV WIV-1)
[15] = molecular target: Bat CoV LYRa11
[16] = molecular target: Bat CoV BANAL-52; remark: listed apart in the source
[17] = molecular target: Bat CoV Rs2018B (SC1r-CoV Rs2018B)
[18] = molecular target: SARS-CoV-2 Mu; remark: listed apart in the source
[19] = molecular target: SARS-CoV-2 Gamma; remark: listed apart in the source
[20] = molecular target: SARS-CoV-2 Delta
[21] = molecular target: SARS-CoV-2 Delta Plus

Q: Which IC50 [1] does the source give for CR3022 here?
A: Its IC50 is 0.397 µg/mL.

Q: For CR3022 (antibody), which sVNT SARS-CoV-2 (% I) [2] is on record?
A: Its sVNT SARS-CoV-2 (% I) is 24.2%.

Q: What about the Binding SARS-CoV-1 [3] of the same substance?
A: Its Binding SARS-CoV-1 is 1.19.

Q: What about the Binding SARS-CoV-2 [4] of the same substance?
A: The Binding SARS-CoV-2 was 1.46.

Q: And the sVNT SARS-CoV-1 (% I) [5]?
A: The sVNT SARS-CoV-1 (% I) was 32.5%.

Q: What does the source list for LyCoV-1404?
A: IC50 [6]: 0.077 µg/mL; IC50 [7]: 0.12 µg/mL; IC50 [8]: 0.067 µg/mL

Q: How did the sVNT SARS-CoV-2 (% I) [2] turn out when LyCoV-1404 (Eli Lily) (antibody) was run?
A: The sVNT SARS-CoV-2 (% I) was 0.144%.

Q: What about the Binding SARS-CoV-1 [3] of the same substance?
A: The Binding SARS-CoV-1 was 1.54.

Q: What about the Binding SARS-CoV-2 [4] of the same substance?
A: The Binding SARS-CoV-2 was 0.445.

Q: What about the sVNT SARS-CoV-1 (% I) [5] of the same substance?
A: The sVNT SARS-CoV-1 (% I) was 94.5%.

Q: Which results are given for S2X259?
A: IC50 [9]: 0.047 µg/mL; IC50 [10]: 0.871 µg/mL; IC50 [11]: 0.102 µg/mL; IC50 [12]: 0.133 µg/mL; IC50 [13]: 0.112 µg/mL; IC50 [14]: 0.117 µg/mL; IC50 [15]: 0.073 µg/mL; IC50 [16]: 0.097 µg/mL; IC50 [17]: 0.142 µg/mL; IC50 [18]: 0.067 µg/mL

Q: How did the sVNT SARS-CoV-2 (% I) [2] turn out when S2X259 (VirBiotech) (antibody) was run?
A: The sVNT SARS-CoV-2 (% I) was 94%.

Q: And the Binding SARS-CoV-1 [3]?
A: Its Binding SARS-CoV-1 is 0.973.

Q: And the Binding SARS-CoV-2 [4]?
A: Its Binding SARS-CoV-2 is 1.73.

Q: And the sVNT SARS-CoV-1 (% I) [5]?
A: The sVNT SARS-CoV-1 (% I) was 92.8%.

Q: How did the IC50 [19] turn out when S309 was run?
A: Its IC50 is 0.172 µg/mL.

Q: What about the IC50 [20] of the same substance?
A: Its IC50 is 0.199 µg/mL.

Q: And the IC50 [21]?
A: The IC50 was 0.24 µg/mL.

Q: With S309 (Sotrovimab, GSK) (antibody) as the substance, how does the sVNT SARS-CoV-2 (% I) [2] read?
A: Its sVNT SARS-CoV-2 (% I) is 39.6%.

Q: What about the Binding SARS-CoV-1 [3] of the same substance?
A: Its Binding SARS-CoV-1 is 1.22.

Q: What about the Binding SARS-CoV-2 [4] of the same substance?
A: Its Binding SARS-CoV-2 is 1.55.

Q: What about the sVNT SARS-CoV-1 (% I) [5] of the same substance?
A: The sVNT SARS-CoV-1 (% I) was 36.5%.
